B1: S2X35 IgG1 (antibody, V domains shown)
VH: QVQLVQSGAEVKKPGASVKVSCKASGYTFTNYGISWVRQAPGQGLEWMGWISAYKGNTNYAQKLQGRVTMTTDTSTSTAYMELRSLRSDDTAVYYCARPDYQVLGYDFWIGYYGMDVWGQGTTVIVSS
VL: QSVLTQPPSVSGAPGQRVTISCTGSSSNIGAGYDVHWYQQLPGTAPKLLIYGNTNRPSGVPDRFSGSKSGTSASLAITGLQAEDEADYYCQSYDSSLSGSEVVFGGGTKLTVL
B2: S2X35 Fab (Fab, V domains shown)
VH: B1 VH
VL: B1 VL
B3: S304 IgG1 (antibody, V domains shown)
VH: EVQLVESGGGLVQPGGSLRLSCAASGFTFSSYDMHWVRQTTGKGLEWVSTIGTAGDTYYPDSVKGRFTISREDAKNSLYLQMNSLRAGDTAVYYCARGDSSGYYYYFDYWGQGTLLTVSS
VL: DIQMTQSPSSLSAAVGDRVTITCRASQSIGSYLNWYQQKPGKAPKLLIYAASSLQSGVPSRFSGSGSGTDFTLTISSLQPEDFAIYYCQQSYVSPTYTFGPGTKVDIK
B4: S304 Fab (Fab, V domains shown)
VH: B3 VH
VL: B3 VL
B5: S2E12 IgG1 (antibody, V domains shown)
VH: not shown
VL: DIVLTQTPGTLSLSPGERATLSCRASQSVSSSYLAWYQQKPGQAPRLLIYGASSRATGIPDRFSGSGSGTDFTLTISRLEPEDFAVYYCQQYVGLTGWTFGQGTKVEIK
B6: S2E12 Fab (Fab, V domains shown)
VH: not shown
VL: B5 VL
B7: S2H97 IgG1 (antibody, V domains shown)
VH: QVRLVQSGAEVKKSGESLKISCKGSGYSFTSYWIGWVRQMPGKGLEWMGIIYPGDSDTRYSPSFQGQVTISADKSISTVYLQWSSLKASDTAMYYCARQWSHYTYDYYYWGQGTLVTISS
VL: QSVLTQPASVSGSPGQSITISCTGISSDVGGYNSVSWYQQHPGKAPKLMIYDVTNRPSGVSNRFSGSKSGNTASLTISGLQAEDEADYYCSSYTSSSTPPYVFGTGTKVSVL
B8: S2H97 Fab (Fab, V domains shown)
VH: B7 VH
VL: B7 VL
B9: S2D106 IgG1 (antibody, V domains shown)
VH: EVQLVQSGAEVKKPGSSVKVSCKASGGPFSSSAISWVRQAPGQGLEWMGGIIPMVGTANYAQKFQGRVTITADESTSTAYMELSSLRSEDTAVYYCARDSRYCSGGSCYSVWFDPWGQGTLVTVSS
VL: not shown
B10: S2D106 Fab (Fab, V domains shown)
VH: B9 VH
VL: not shown

Molecular target: T1, SARS-CoV-2 RBD WT (for SPR binding assays) (SARS-CoV-2, Wuhan-Hu-1 (WT), UniProt P0DTC2)
Assay: SPR

Point of comparison: B4, Kd 1 nM. Against it:
- B1 — 17-fold lower, 0.06 nM
- B2 — 5-fold lower, 0.2 nM
- B3 — 2.5-fold lower, 0.4 nM
- B5 — within 1.5-fold, 0.7 nM
- B6 — 1.7-fold higher, 1.7 nM
- B7 — 25-fold lower, 0.04 nM
- B8 — 25-fold lower, 0.04 nM
- B9 — 25-fold lower, 0.04 nM
- B10 — 20-fold lower, 0.05 nM

Molecular target: T1, SARS-CoV-2 RBD WT (for SPR binding …)
Assay: cell-based or functional assay

Point of comparison: B7, “IC50, neutralisation of authentic SARS-CoV-2 (SARS-CoV-2-Nluc) on Vero E6 cells” value 0.749 µg/mL. Against it:
- B1 — 4.2-fold lower, 0.179 µg/mL
- B3 — 19-fold higher, 14.4 µg/mL
- B5 — 170-fold lower, 0.0045 µg/mL
- B9 — 110-fold lower, 0.0068 µg/mL

Point of comparison: B9, “IC90, neutralisation of authentic SARS-CoV-2 (SARS-CoV-2-Nluc) on Vero E6 cells” value 0.0236 µg/mL. Against it:
- B1 — 25-fold higher, 0.593 µg/mL
- B5 — 1.7-fold lower, 0.014 µg/mL
- B7 — 140-fold higher, 3.29 µg/mL

Reference: publication PMC9282883 (Nature, 2021)
